3 molecules from patent US20090291895A1 (published 2009) can be followed below.

Assay [1] addresses T1, purified recombinant MPV vCCI (monkeypox virus viral CC-chemokine inhibitor, product of MPV ORF-[cha (monkeypox virus, UniProt P0DTM9 17-246)). Kind of assay: native PAGE mobility shift (1:1 molar ratio); co-immunoprecipitation.
The target in assay [2] is T1, purified recombinant MPV vCCI …. Kind of assay: mobility shift assay.

B1: purified recombinant 6x-histidine tagged rhesus MIP-1alpha (ligand)
chain: ADTPTSCCFSYISRQIPQNFIADYFETNSQCSKPGVIFLTKRGRQVCADPSKEWVQKYVSDLELSAHHHHHH
notes: also called rhMIP-1α; rhMIP1α
Consider B1, for which the binding result in assay [1] is reported as “binds”.

B2: mouse MIP-1alpha (ligand)
chain: APYGADTPTACCFSYSRKIPRQFIVDYFETSSLCSQPGVIFLTKRNRQICADSKETWVQEYITDLELNA
As to B2, the binding result in assay [2] is “binds”.

B3: mouse MCP-1 (ligand)
chain: not shown
With B3, the binding result in assay [2] is “binds”.
